# Data published in paper PMC3814152 (Molecular Biology of the Cell, 2013).
# Biological target: the molecule itself
# Experiment: SEC
protein,measurement,value
Mzt1-His6 (natural protein) MSESTKETIEVLYEIGTLLGTELDKTTLSLCISLCENNVHPEAIAQIIREIRMAQEQTVDTEPS,stoichiometry N,~12
